Assay results reported in the Human Domainome abundance scans (Beltran et al. 2025).
± gives the uncertainty stated by the source.

B1: POU domain, class 4, transcription factor 1, residues 266 to 347; numbered along this chain, Q01851 (parent)
chain: RELEAFAERFKQRRIKLGVTQADVGSALANLKIPGVGSLSQSTICRFESLTLSHNNMIALKPILQAWLEEAEGAQREKMNKP

Variants of: B1
Test: abundance fitness (aPCA) (normalised: wild type 0, dead -1); higher = more abundant; growth selection in yeast, the domain comes from the species named
Settings: Homo sapiens

Variant | abundance fitness
RELEAFAERFKQRRIKLGVTQDDVGSALANLKIPGVGSLSQSTICRFESLTLSHNNMIALKPILQAWLEEAEGAQREKMNKP [A22D] | -0.121 ± 0.15
RELEAFAERFFQRRIKLGVTQADVGSALANLKIPGVGSLSQSTICRFESLTLSHNNMIALKPILQAWLEEAEGAQREKMNKP [K11F] | -0.627 ± 0.2
RELEAFAERFKQRRIKLGVTQADVGSALANLKIPGVGSLSQSTICRFESLTLSHNNMIALKPILQAWLEEKEGAQREKMNKP [A71K] | 0.072 ± 0.073
RELEAFAERFKQRRIKLGVTQADVGSALANLKIPGVVSLSQSTICRFESLTLSHNNMIALKPILQAWLEEAEGAQREKMNKP [G37V] | -0.093 ± 0.028
RELEAFAERFKQRRIKLGVTQADVGSALANLKIPGVGSLSQSTICRFESLTLSHNNHIALKPILQAWLEEAEGAQREKMNKP [M57H] | -0.399 ± 0.16
RELEAFAERFKQRRIKLGVTQADVGSALENLKIPGVGSLSQSTICRFESLTLSHNNMIALKPILQAWLEEAEGAQREKMNKP [A29E] | 0.036 ± 0.11
RELEAFAARFKQRRIKLGVTQADVGSALANLKIPGVGSLSQSTICRFESLTLSHNNMIALKPILQAWLEEAEGAQREKMNKP [E8A] | -0.008 ± 0.063
RELEAFAERFKQRRIKLGVTQADVGSALANLKIPGVGSLSQSTICRCESLTLSHNNMIALKPILQAWLEEAEGAQREKMNKP [F47C] | -0.969 ± 0.28
RELEAFAERFKQRRIKLGVTQADVGSALANLKIPGVGSLSQSTICRTESLTLSHNNMIALKPILQAWLEEAEGAQREKMNKP [F47T] | -0.822 ± 0.3
REAEAFAERFKQRRIKLGVTQADVGSALANLKIPGVGSLSQSTICRFESLTLSHNNMIALKPILQAWLEEAEGAQREKMNKP [L3A] | -0.162 ± 0.042
REREAFAERFKQRRIKLGVTQADVGSALANLKIPGVGSLSQSTICRFESLTLSHNNMIALKPILQAWLEEAEGAQREKMNKP [L3R] | -0.622 ± 0.046
RELEAFAERFKQRRIKLGVTQADVFSALANLKIPGVGSLSQSTICRFESLTLSHNNMIALKPILQAWLEEAEGAQREKMNKP [G25F] | -0.119 ± 0.14
RELEAFAERFKQRRIKLGVTQADVSSALANLKIPGVGSLSQSTICRFESLTLSHNNMIALKPILQAWLEEAEGAQREKMNKP [G25S] | 0.001 ± 0.047
RELEAFAERFKQRRIKLGVTQADVGSALANLKIPGVGSPSQSTICRFESLTLSHNNMIALKPILQAWLEEAEGAQREKMNKP [L39P] | -0.03 ± 0.072
RELEAFAERFKQRRIKLGVTQADVGSALANLKIPGVGSLSQSTICRFESLTLSHNNMIALKPILQAWLEEAEGACREKMNKP [Q75C] | -0.015 ± 0.051
RELEAFAERFKQRRIKLGETQADVGSALANLKIPGVGSLSQSTICRFESLTLSHNNMIALKPILQAWLEEAEGAQREKMNKP [V19E] | -0.396 ± 0.081
RELEAFAERFKQRRIKLGYTQADVGSALANLKIPGVGSLSQSTICRFESLTLSHNNMIALKPILQAWLEEAEGAQREKMNKP [V19Y] | -0.027 ± 0.086

Variant | abundance fitness
RELEAFAERFKQRRIKLFVTQADVGSALANLKIPGVGSLSQSTICRFESLTLSHNNMIALKPILQAWLEEAEGAQREKMNKP [G18F] | -0.663 ± 0.32
RELETFAERFKQRRIKLGVTQADVGSALANLKIPGVGSLSQSTICRFESLTLSHNNMIALKPILQAWLEEAEGAQREKMNKP [A5T] | -0.065 ± 0.059
RELEAFAERFKQRRIKLGVTQADVGSALANLKIPGVGSLSQSTICRFESLCLSHNNMIALKPILQAWLEEAEGAQREKMNKP [T51C] | -0.106 ± 0.048
RELEAFAERFKQRRIKLGVTQADVGSALANLKIPGVGSLSQSTICRFESLTLSHNNMIALKPILQAWLEEAEGAQRTKMNKP [E77T] | -0.064 ± 0.04
RELEAFAERFKQRRIKLGVTQADVGSALANLKIPGVGSLSQETICRFESLTLSHNNMIALKPILQAWLEEAEGAQREKMNKP [S42E] | 0.004 ± 0.045
RELEAFAERFKQRRIKLGVTQADVGSALANLKIPGVGSLSQYTICRFESLTLSHNNMIALKPILQAWLEEAEGAQREKMNKP [S42Y] | -0.185 ± 0.22
RELEAFAERFKQRRIKLGVTQADVGSALANLKIPGVGSLSQSTICRFESLTLSHNNMIWLKPILQAWLEEAEGAQREKMNKP [A59W] | -0.198 ± 0.05
RELEAFAERFKQRRIKLGVTQADVGSALANLKIPGVGSLSQSTICRFESLTLSHNNMIHLKPILQAWLEEAEGAQREKMNKP [A59H] | 0.227 ± 0.19
RELEAFAERFKQRRIKLGVTQADVGSALANLKIPGVGCLSQSTICRFESLTLSHNNMIALKPILQAWLEEAEGAQREKMNKP [S38C] | -0.222 ± 0.16
RELEAFAERFKQRRIKLGVTQADVGSALANLKIPGVGSLSQSTICRFESLTLSHNNMIALKPPLQAWLEEAEGAQREKMNKP [I63P] | -0.203 ± 0.081
RELEAFAERFKQRRIKLGVTQADVGSALANLKIPGVGSLSQSTICRFESLTLSHNNMIALKPSLQAWLEEAEGAQREKMNKP [I63S] | -0.204 ± 0.068
RELEAFAERFKQRRIKLGVTQADVGSALANLKIPGVGSLSQSTICRFESLTLSHNNMIALKPCLQAWLEEAEGAQREKMNKP [I63C] | -0.028 ± 0.075
RELEAFAERFKQRRIKVGVTQADVGSALANLKIPGVGSLSQSTICRFESLTLSHNNMIALKPILQAWLEEAEGAQREKMNKP [L17V] | -0.286 ± 0.036
RELEAFAERFKQRRIKLGVTQADVGSALANLKIPGKGSLSQSTICRFESLTLSHNNMIALKPILQAWLEEAEGAQREKMNKP [V36K] | -0.138 ± 0.14
YELEAFAERFKQRRIKLGVTQADVGSALANLKIPGVGSLSQSTICRFESLTLSHNNMIALKPILQAWLEEAEGAQREKMNKP [R1Y] | -0.076 ± 0.085
RELEAFAERFKQRRIKLGVTQADVGSALANLKIPGVGSLIQSTICRFESLTLSHNNMIALKPILQAWLEEAEGAQREKMNKP [S40I] | -0.202 ± 0.17
RELEAFAERFKQRRIKLGVVQADVGSALANLKIPGVGSLSQSTICRFESLTLSHNNMIALKPILQAWLEEAEGAQREKMNKP [T20V] | -0.567 ± 0.28
